Reference: patent publication US20240076680 (RHEINISCHE FRIEDRICH-WILHELMS-UNIVERSITÄt BONN, published 2024)

Key:
ACE2 ectodomain (ACE2e) = ACE2 ectodomain (ACE2e) (Homo sapiens, UniProt Q9BYF1 Q9BYF1:19-615); experiment: flow; conditions: tags: N-terminal myc, C-terminal HRV 3C site and 8xHis; FreeStyle 293F expressed
[1] = molecular target: SARS-CoV-2 spike receptor-binding domain (RBD) (SARS-CoV-2, UniProt P0DTC2 P0DTC2:319-591); experiment: flow

Chain of ACE2 ectodomain (ACE2e) (Q9BYF1 19-615, one chain of several): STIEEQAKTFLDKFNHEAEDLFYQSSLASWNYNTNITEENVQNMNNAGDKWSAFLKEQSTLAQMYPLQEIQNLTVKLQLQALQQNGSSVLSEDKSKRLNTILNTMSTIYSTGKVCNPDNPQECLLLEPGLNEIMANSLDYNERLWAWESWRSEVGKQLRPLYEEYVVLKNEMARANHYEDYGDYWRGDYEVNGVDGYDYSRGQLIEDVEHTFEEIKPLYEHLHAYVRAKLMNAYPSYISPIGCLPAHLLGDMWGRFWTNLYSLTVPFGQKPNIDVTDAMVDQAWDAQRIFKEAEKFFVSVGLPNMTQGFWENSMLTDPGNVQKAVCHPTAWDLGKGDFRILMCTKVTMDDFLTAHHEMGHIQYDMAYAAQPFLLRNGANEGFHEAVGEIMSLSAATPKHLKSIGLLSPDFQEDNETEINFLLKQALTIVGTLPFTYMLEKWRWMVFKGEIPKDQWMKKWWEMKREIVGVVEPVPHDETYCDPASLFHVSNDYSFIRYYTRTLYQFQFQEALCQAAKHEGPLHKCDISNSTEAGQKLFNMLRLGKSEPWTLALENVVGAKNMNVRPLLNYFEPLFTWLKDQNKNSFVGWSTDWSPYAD

Row | Binder | binding result (ACE2 ectodomain (ACE2e)) | binding result [1]
1 | SP8 (ssDNA) DNA: GGGAGAGGAGGGAGATAGATATCAAAAGGAGGGTAGGTAGTGCTTGGTAGGGAAACTCCGCCGATTTTTCGTGGATGCCACAGGAC | no binding | no binding
2 | SP7 (ssDNA) DNA: GGGAGAGGAGGGAGATAGATATCAAAGGAGGGTAGGTAGTGCTTGGTAGGGAAACTCCGCCGATTTTTCGTGGATGCCACAGGAC | no binding | no binding
3 | SP5 (ssDNA) DNA: GGGAGAGGAGGGAGATAGATATCAACCATGGTAGGTATTGCTTGGTAGGGATAGTGGGCTTGATGTTTCGTGGATGCCACAGGAC | no binding | no binding
4 | SP6 (ssDNA) DNA: GGGAGAGGAGGGAGATAGATATCAACCCATGGTAGGTATTGCTTGGTAGGGATAGTGGGCTTGATGTTTCGTGGATGCCACAGGAC | no binding | no binding
